Assay results: publication PMC1868955, “Crystal Structure of the P Pilus Rod Subunit PapA” (PLoS Pathogens, 2007)

Experiments:
[1] = molecular target: the molecule itself; experiment: SEC; gel filtration of co-expressed PapDHis/PapA complexes immediately after purification; Superdex75 120 ml, 20 mM TrisHCl pH 7.5, 20 mM NaCl
[2] = molecular target: the molecule itself; experiment: negative-stain electron microscopy; PapD/PapA samples frozen and thawed five times at 150 μg/ml in 10–20 mM TrisHCl pH 7.6, 20–50 mM NaCl; used the same day or kept at 4 °C up to 40 d; 1% uranyl acetate

Row | Protein | binding result [1] | binding result [2]
1 | PapA G15N (natural protein, source: E. coli C600, co-expressed with PapDHis) APTIPQGQGKVTFNNTVVDAPCSISQKSADQSIDFGQLSKSFLEAGGVSKPMDLDIELVNCDITAFKGGNGAKKGTVKLAFTGPIVNGHSDELDTNGGTGTAIVVQGAGKNVVFDGSEGDANTLKDGENVLHYTAVVKKSSAVGAAVTEGAFSAVANFNLTYQ | binds | 
2 | PapA I4G (natural protein, source: E. coli C600, co-expressed with PapDHis) APTGPQGQGKVTFNGTVVDAPCSISQKSADQSIDFGQLSKSFLEAGGVSKPMDLDIELVNCDITAFKGGNGAKKGTVKLAFTGPIVNGHSDELDTNGGTGTAIVVQGAGKNVVFDGSEGDANTLKDGENVLHYTAVVKKSSAVGAAVTEGAFSAVANFNLTYQ |  | binds
3 | PapA I4G G15N (natural protein, source: E. coli C600, co-expressed with PapDHis) APTGPQGQGKVTFNNTVVDAPCSISQKSADQSIDFGQLSKSFLEAGGVSKPMDLDIELVNCDITAFKGGNGAKKGTVKLAFTGPIVNGHSDELDTNGGTGTAIVVQGAGKNVVFDGSEGDANTLKDGENVLHYTAVVKKSSAVGAAVTEGAFSAVANFNLTYQ | binds | 
4 | PapA Ntd1 (residues 2 to 8 deleted) (natural protein, also called Ntd1 (Δ2–8); source: E. coli C600, co-expressed with PapDHis) AGKVTFNGTVVDAPCSISQKSADQSIDFGQLSKSFLEAGGVSKPMDLDIELVNCDITAFKGGNGAKKGTVKLAFTGPIVNGHSDELDTNGGTGTAIVVQGAGKNVVFDGSEGDANTLKDGENVLHYTAVVKKSSAVGAAVTEGAFSAVANFNLTYQ | binds | 
5 | PapA Ntd1 G15N T101L (residues 2 to 8 deleted, G15N, T101L) (natural protein, Two copies stand in the PapD/(PapA)2 complex: one donor-strand complemented by PapD (dscPapA), one donor-strand exchanged with the Nte of the first (dsePapA); also called dscPapA; dsePapA; source: E. coli C600, co-expressed with PapDHis) AGKVTFNNTVVDAPCSISQKSADQSIDFGQLSKSFLEAGGVSKPMDLDIELVNCDITAFKGGNGAKKGTVKLAFTGPIVNGHSDELDTNGGTGLAIVVQGAGKNVVFDGSEGDANTLKDGENVLHYTAVVKKSSAVGAAVTEGAFSAVANFNLTYQ | binds | 
